This data set concerns the molecule itself. Description: SEC; size exclusion chromatography of purified LuxS (Superdex 200 named in the purification); data not shown.

B1: S-ribosylhomocysteinase (LuxS) from Streptococcus suis strain HA9801 (enzyme, UniProt A4VTE8 1-160, looked up)
chain: MKKEVTVESFELDHTIVKAPYIRLISEEVGPKGDIITNFDIRLIQPNENAMDTAGLHTIEHLLAKLIRQRIDGLIDCSPFGCRTGFHMIMWGKQDSEKIAQVIKSSLEEIAEGITWEDVPGTTIESCGNYKDHSLHSAKEWAKLILSQGISTDAFERKPI
notes: also called S. suis LuxS; SS LuxS protein; source: E. coli BL21 (DE3), pET28-luxS, purified (HisTrap column, Superdex 200 size-exclusion chromatography)
Regarding B1, the “stoichiometry N” value is 2.

The values above are taken from paper PMC4618692, “Crystal Structure and Identification of Two Key Amino Acids Involved in AI-2 Production and Biofilm Formation in Streptococcus suis LuxS” (PLoS ONE, 2015).
